The test system of data set [1] is CC(=O)NCCCNCCCCNCCCN
Description: steady-state oxygen consumption, oxygen electrode. Format: biochemical, Saccharomyces cerevisiae. As to conditions: pH 9.0, 25 °C, 1.3 mM oxygen, 10% glycerol.

In data set [2] the test system is NCCCNCCCCNCCCN
Put plainly: steady-state oxygen consumption, oxygen electrode. It is filed as biochemical, Saccharomyces cerevisiae. As to conditions: pH 9.35, 25 °C, 1.3 mM oxygen, 10% glycerol, pH 9.35.

For data set [3], the target named is Lys315 (UniProt position 315, FGTNNKIFLEF). Put plainly: kinetics. As to conditions: Oxidative half-reaction, N1-acetylspermine as amine substrate; cited from earlier work.

One may read the Km as the concentration of substrate that gives half-maximal velocity. As a reminder, the kcat is the number of substrate molecules converted per active site and unit of time at saturation. Usually kcat/Km stands for the second-order rate constant that governs catalysis at low substrate concentration. For “Fms1 (Saccharomyces cerevisiae S288C; H67A)”, in data set [1] (pH 9.0), the Km turned out to be 50 ± 13 µM, the catalytic constant (kcat) was found to be 2.7 ± 0.1 s⁻¹ and the kcat/Km worked out at 54000 ± 14000 M⁻¹ s⁻¹. Also, in data set [2], the Km came to 1740 ± 310 µM, the kcat is 0.44 ± 0.03 s⁻¹ and the kcat/Km came to 250 ± 50 M⁻¹ s⁻¹.

On to “Fms1 (Saccharomyces cerevisiae S288C; H67N)”, for which, in data set [1], the Km is 18.6 ± 4.0 µM, the kcat was determined as 1.35 ± 0.04 s⁻¹ and the kcat/Km was 72500 ± 15000 M⁻¹ s⁻¹.

As to “Fms1 (Saccharomyces cerevisiae S288C; H67Q)”, in data set [1] (pH 9.0), the Km is 47 ± 6 µM, the kcat was 3.9 ± 0.1 s⁻¹ and the specificity constant (kcat/Km) amounted to 83000 ± 11000 M⁻¹ s⁻¹. For the same substance, in data set [2], the Km was found to be 165 ± 25 µM and the kcat came out at 0.88 ± 0.01 s⁻¹.

The term pKa denotes the pH at which an ionisable group is half protonated. In the case of “N1-acetylpolyamine oxidase (mouse PAO) (Mus musculus)”, in data set [3], the pKa is given as 7.0.

The record behind these values is article PMC3378762.
